The values below come from CN115043940A (TIANCHEN BIOMEDICAL SUZHOU CO LTD, dated 2022).

The target in one assay is T1, 食蟹猴血清白蛋白 (cynomolgus monkey (食蟹猴), UniProt A2V9Z4 25-608, biotin-labelled (sites not given)).
T1 construct: Biotin-labelled and loaded on SA sensors in the Octet assay; also called albumin-macaca; alb-ma
Put plainly: Octet BLI, biotinylated cynomolgus serum albumin on SA sensor, VHH in solution.

The target of assay [1] is T2, 人血清白蛋白(Human Serum Albumin,HSA) (human, UniProt P02768 25-609).
T2 construct: The only source named is native HSA (abcam ab205808), for immunisation; also called HSA蛋白; HSA抗原
T2 sequence (P02768 25-609 limits assumed): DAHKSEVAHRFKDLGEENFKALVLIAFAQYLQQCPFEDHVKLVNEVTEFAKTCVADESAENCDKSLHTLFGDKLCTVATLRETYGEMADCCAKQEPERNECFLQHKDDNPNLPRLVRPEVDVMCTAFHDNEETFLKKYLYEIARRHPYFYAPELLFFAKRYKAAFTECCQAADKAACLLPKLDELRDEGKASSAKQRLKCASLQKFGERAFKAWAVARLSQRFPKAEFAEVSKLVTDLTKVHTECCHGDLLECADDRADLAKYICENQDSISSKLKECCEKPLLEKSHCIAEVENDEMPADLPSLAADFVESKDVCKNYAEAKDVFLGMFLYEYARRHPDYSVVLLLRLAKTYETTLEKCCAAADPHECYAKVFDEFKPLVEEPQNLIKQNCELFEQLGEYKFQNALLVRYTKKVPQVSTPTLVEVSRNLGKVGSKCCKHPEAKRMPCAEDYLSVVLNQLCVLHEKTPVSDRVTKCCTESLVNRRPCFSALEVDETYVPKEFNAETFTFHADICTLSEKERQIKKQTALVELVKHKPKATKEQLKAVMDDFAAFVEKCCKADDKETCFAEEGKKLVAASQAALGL
Put plainly: Octet BLI, biotinylated HSA on SA sensor, VHH in solution. A general note: BLI is a label-free optical method that tracks binding on a fibre tip over time.

One may read the Kd as the free concentration of one partner at which half of the binding sites on the other are occupied at equilibrium, for simple one-to-one binding. For orientation: koff means the first-order rate constant of dissociation. As usually defined, the kon is the second-order rate constant of association.

T1 sequence (A2V9Z4 25-608 limits assumed): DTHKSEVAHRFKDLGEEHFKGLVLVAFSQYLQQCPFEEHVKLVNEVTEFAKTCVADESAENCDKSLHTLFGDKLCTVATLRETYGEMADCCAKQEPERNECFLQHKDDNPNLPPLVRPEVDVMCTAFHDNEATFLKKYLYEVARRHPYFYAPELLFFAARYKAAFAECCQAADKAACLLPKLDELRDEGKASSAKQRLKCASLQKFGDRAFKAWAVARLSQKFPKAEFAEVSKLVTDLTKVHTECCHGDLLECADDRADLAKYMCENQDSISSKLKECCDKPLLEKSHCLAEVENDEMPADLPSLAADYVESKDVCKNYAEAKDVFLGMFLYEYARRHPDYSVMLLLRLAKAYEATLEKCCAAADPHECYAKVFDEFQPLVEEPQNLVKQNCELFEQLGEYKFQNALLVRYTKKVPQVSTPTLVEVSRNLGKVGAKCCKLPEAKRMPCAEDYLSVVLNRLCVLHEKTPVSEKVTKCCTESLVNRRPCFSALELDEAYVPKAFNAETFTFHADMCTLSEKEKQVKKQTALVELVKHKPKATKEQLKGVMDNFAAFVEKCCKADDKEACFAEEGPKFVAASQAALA

B1: 单域抗体LB21 (VHH)
VHH: QVQLVESGGGLVQPGGSLRLSCAASRIIFDVYNLAWFRQAPGKERELVASITSGLSTDYATTVKGRFIISRDNAKNTVYLQMNNLKPEDTAVYYCTANSRTTWYYWGQGTLVTVSS
notes: not shown: C-terminal 6xHis-tag and HA-tag
In the assay with 食蟹猴血清白蛋白, B1 showed a Kd of 0.217 nM, a koff of 2.69e-05 s⁻¹ and an on-rate (kon) of 124000 M⁻¹ s⁻¹. Moreover, in assay [1], the Kd turned out to be 1.24 nM, the dissociation rate constant (koff) came to 0.000687 s⁻¹ and the kon came to 554000 M⁻¹ s⁻¹.

B2: 单域抗体LB22 (VHH)
VHH: QVQLQESGGGVVQPGGSLRLSCTASGFTFSVYAMGWYRQAPGKDCELVGLITSTSDTRYADSVKGRFSISRDNAKKTVYLQMNRLKPEDTAVYYCMAGNSWGATVQAMCKSDYDYWGQGTQVTVSS
notes: as for B1
With B2, in the assay with 食蟹猴血清白蛋白, binding was put at a Kd of 0.708 nM, the off-rate constant (koff) was 6.47e-05 s⁻¹ and the association rate constant (kon) came to 91300 M⁻¹ s⁻¹. Moreover, in assay [1], binding was characterised by a dissociation constant (Kd) of 0.109 nM, the koff was found to be 0.00014 s⁻¹ and the on-rate (kon) was 1.29e+06 M⁻¹ s⁻¹.
